For one assay, the target named is GST-LC3A. The experiment in a line: GST-pulldown, in vitro-translated 35S-labelled protein, autoradiography quantification. The settings on record: Means ± SD of 3 independent experiments; parent: est. 0.5; read off a plot.
As for “Myc-tagged BECN1, full-length, in vitro translated (from UniProt Q14457) F97A; I100A”, the response is 0.25 % binding.
On the same count and under the same terms, then “Myc-tagged BECN1, full-length, in vitro translated (from UniProt Q14457) S90E; S93E; S96E”, with 0.6 % binding; and “Myc-tagged BECN1, full-length, in vitro translated (from UniProt Q14457) F97A; I100A; S90E; S93E; S96E”, with 0.25 % binding.

Staying with this assay, now noted: Means ± SD of 3 independent experiments; parent: est. 1.7; read off a plot.
Consider “Myc-tagged PIK3C3, full-length, in vitro translated (from UniProt Q8NEB9) F250A; V253A”, for which the response was 1.2 % binding.
Same read-out and setting: then “Myc-tagged PIK3C3, full-length, in vitro translated (from UniProt Q8NEB9) F198A; I201A”, with 1.8 % binding; and “Myc-tagged PIK3C3, full-length, in vitro translated (from UniProt Q8NEB9) F198A; I201A; F250A; V253A”, with 1 % binding.

The same assay, now with this note: Means ± SD of 3 independent experiments; parent: est. 2.6; read off a plot.
In the case of “Myc-tagged ATG14, full-length, in vitro translated (from UniProt Q6ZNE5) W435A; L438A”, the response was determined as 1.2 % binding.
Same read-out and setting: the same measure for “Myc-tagged ATG14, full-length, in vitro translated (from UniProt Q6ZNE5) F64A; F67A; W435A; L438A”: 1 % binding; for “Myc-tagged ATG14, full-length, in vitro translated (from UniProt Q6ZNE5) F64A; F67A”: 2.3 % binding.

Source of the values: publication PMC6613885.
